Data as given in PMC5824887, “A family of unconventional deubiquitinases with modular chain specificity determinants” (Nature Communications, 2018).

B1: human ZUFSP, full length, bacterially expressed (enzyme, UniProt Q96AP4 1-578, looked up)
chain: MLSCNICGETVTSEPDMKAHLIVHMESEIICPFCKLSGVNYDEMCFHIETAHFEQNTLERNFERINTVQYGTSDNKKDNTLQCGMEVNSSILSGCASNHPKNSAQNLTKDSTLKHEGFYSENLTESRKFLKSREKQSSLTEIKGSVYETTYSPPECPFCGKIEEHSEDMETHVKTKHANLLDIPLEDCDQPLYDCPMCGLICTNYHILQEHVDLHLEENSFQQGMDRVQCSGDLQLAHQLQQEEDRKRRSEESRQEIEEFQKLQRQYGLDNSGGYKQQQLRNMEIEVNRGRMPPSEFHRRKADMMESLALGFDDGKTKTSGIIEALHRYYQNAATDVRRVWLSSVVDHFHSSLGDKGWGCGYRNFQMLLSSLLQNDAYNDCLKGMLIPCIPKIQSMIEDAWKEGFDPQGASQLNNRLQGTKAWIGACEVYILLTSLRVKCHIVDFHKSTGPLGTHPRLFEWILNYYSSEGEGSPKVVCTSKPPIYLQHQGHSRTVIGIEEKKNRTLCLLILDPGCPSREMQKLLKQDIEASSLKQLRKSMGNLKHKQYQILAVEGALSLEEKLARRQASQVFTAEKIP
notes: Zn-finger and UFSP domain protein (ZUFSP), human, cloned from HEK293 cDNA; also called ZUP1; C6orf113; source: E. coli Rosetta (DE3)pLysS, purified (HisTrap, tag removal with Senp1, SEC); not shown: His6, N-terminal, cleaved; Smt3, N-terminal, cleaved
B2: Mug105 from the fission yeast Schizosaccharomyces pombe (enzyme, S. pombe, UniProt O13979 1-244, looked up)
chain: MSKCLQQLKRQLQHFGIDGCSLADGDIDYFFTVTGIDRGWGCGWRNIQMLISWLQYTNPNWFKRNFSSGNYEINSLQSLLLSAWMKGIDAEGYAQLGDNLHGKWIGATEVYSLFTGLFVNVALVDFDFRSEASASNALFLYVKKHFESSNDTSNVSPCYLQFQGHSIIIIGFCSSLETLVVLDPDRYQSVQKKFVNIADFNHCYMRKKRSLKFSQFQLVHFKQNIFLNDFSSKLEVRSTRISDF
notes: Mug105, S. pombe, cloned from genomic DNA; consists only of the core catalytic domain; source: E. coli Rosetta (DE3)pLysS, purified (HisTrap, tag removal with Senp1, SEC); not shown: His6, N-terminal, cleaved; Smt3, N-terminal, cleaved
B3: ZUFSP^232-578 (domain or fragment, human, UniProt Q96AP4 232-578, looked up)
chain: GDLQLAHQLQQEEDRKRRSEESRQEIEEFQKLQRQYGLDNSGGYKQQQLRNMEIEVNRGRMPPSEFHRRKADMMESLALGFDDGKTKTSGIIEALHRYYQNAATDVRRVWLSSVVDHFHSSLGDKGWGCGYRNFQMLLSSLLQNDAYNDCLKGMLIPCIPKIQSMIEDAWKEGFDPQGASQLNNRLQGTKAWIGACEVYILLTSLRVKCHIVDFHKSTGPLGTHPRLFEWILNYYSSEGEGSPKVVCTSKPPIYLQHQGHSRTVIGIEEKKNRTLCLLILDPGCPSREMQKLLKQDIEASSLKQLRKSMGNLKHKQYQILAVEGALSLEEKLARRQASQVFTAEKIP
notes: In the crystal the catalytic Cys-360 is covalently coupled to Ub-PA; also called the construct used for crystallization; source: E. coli Rosetta (DE3)pLysS, purified (HisTrap, tag removal with Senp1, SEC); not shown: His6, N-terminal, cleaved; Smt3, N-terminal, cleaved

Tests used:
[1] = target: T1, propargylated ubiquitin (Ub-PA) (UniProt P0CG48 1-75, propargylamine coupled to the C-terminus of ubiquitin 1-75); assay: suicide probe reaction (covalent adduct, SDS-PAGE, Coomassie); DUB prediluted to 10 µM, combined 1:1 with 100 µM probe in 20 mM TRIS pH 7, 150 mM NaCl, 10 mM DTT; 16 h at 4 °C; shifted band on Coomassie-stained gel; details: both partners purified
[2] = target: T1, propargylated ubiquitin (Ub-PA); assay: crystal structure; covalent complex of ZUFSP^232-578 and Ub-PA (100 µM + 200 µM, 18 h, 4 °C, SEC); crystals from 0.2 M sodium malonate pH 5, 20% PEG 3350, 4 °C; details: both partners purified

Row | Binder | binding result [1] | binding result [2]
1 | B1 | binds | –
2 | B2 | binds | –
3 | B3 | – | binds
